Results reported in US12514920B1, “Respiratory syncytial virus mRNA vaccine, and preparation method therefor and use thereof” (Hangzhou Tianlong Pharmaceutical Co., Ltd., priority 2024, dated 2026).

B1: YK-RSV-046 (protein)
chain: QNITEEFYQSTCSAVSKGYLGALRTGWYTSVITIELSNIKENKCNGTDAKVKLIKQELDKYKNAVTDLQLLMQSTPATGSGSFCGFLLGVGSAIASGVAVSKVLHLEGEVNKIKSALLSTNKAVVSLSNGVSVLTFKVLDLKNYIDKQLLPILNKQSCSIPNIETVIEFQQKNNRLLEITREFSVNAGVTTPVSTYMLTNSELLSLINDMPITNDQKKLMSNNVQIVRQQSYSIMSIIKEEVLAYVVQLPLYGVIDTPCWKLHTSPLCTTNTKEGSNICLTRCDRGWYCDNAGSVSFFPQAETCKVQSNRVFCDTMNSRTLPSEVNLCNVDIFNPKYDCKIMTSKTDVSSSVITSLGAIVSCYGKTKCTASNKNRGIIKTFSNGCDYVSNKGVDTVSVGNTLYYVNKQEGQSLYVKGEPIINFYDPLVFPSDEFDASISQVNEKINQSLAFIRKSDELLHNVNAGKSTTNIMITTIIIVIIVILLSLIAVGLLLY
B2: YK-RSV-051 (protein)
chain: QNITEEFYQSTCSAVSKGYLGALRTGWYTSVITIELSNIKENKCNGTDAKVKLIKQELDKYKNAVTDLQLLMQSTPATGSGSFLGCLLGVGSAIASGVAVSKVLHLEGEVNKIKSALLSTNKAVVSLSNGVSVLTFKVLDLKNYIDKQLLPILNKQSCSIPNIETVIEFQQKNNRLLEITREFSVNAGVTTPVSTYMLTNSELLSLINDMPITNDQKKLMSNNVQIVRQQSYSIMSIIKEEVLAYVVQLPLYGVIDTPCWKLHTSPLCTTNTKEGSNICLTRTDRGWYCDNAGSVSFFPQAETCKVQSNRVFCDCMNSRTLPSEVNLCNVDIFNPKYDCKIMTSKTDVSSSVITSLGAIVSCYGKTKCTASNKNRGIIKTFSNGCDYVSNKGVDTVSVGNTLYYVNKQEGQSLYVKGEPIINFYDPLVFPSDEFDASISQVNEKINQSLAFIRKSDELLHNVNAGKSTTNIMITTIIIVIIVILLSLIAVGLLLY
B3: YK-RSV-035 (protein)
chain: QCITEEFYQSTCSAVSKGYLGALRTGWYTSVITIELSNIKENKCNGTDAKVKLIKQELDKYKNAVTDLQLLMQSTPATGSGSAIASGVAVSKVLHLEGEVNKIKSALLSTNKAVVSLSNGVSVLTFKVLDLKNYIDKQLLPILNKQSCSIPNIETVIEFQQKNNRLLEITREFSVNAGVTTPVSTYMLTNSELLSLINDMPITNDQKKLMSNNVQIVRQQSYSIMSIIKEEVLAYVVQLPLYGVIDTPCWKLHTSPLCTTNTKEGSNICLTRTDRGWYCDNAGSVSFFPQAETCKVQSNRVFCDTMNSRTLPSEVNLCNVDIFNPKYDCKIMTSKTDVSSSVITSLGAIVSCYGKTKCTASNKNRGIIKTFSNGCDYVSNKGVDTVSVGNTLYYVNKCEGQSLYVKGEPIINFYDPLVFPSDEFDASISQVNEKINQSLAFIRKSDELLHNVNAGKSTTNIMITTIIIVIIVILLSLIAVGLLLY
B4: YK-RSV-037 (protein)
chain: QNITEEFYQSTCSAVSKGYLGALRTGWCTSVITIELSNIKENKCNGTDAKVKLIKQELDKYKNAVTDLQLLMQSTPATGSGSAIASGVCVSKVLHLEGEVNKIKSALLSTNKAVVSLSNGVSVLTFKVLDLKNYIDKQLLPILNKQSCSIPNIETVIEFQQKNNRLLEITREFSVNAGVTTPVSTYMLTNSELLSLINDMPITNDQKKLMSNNVQIVRQQSYSIMSIIKEEVLAYVVQLPLYGVIDTPCWKLHTSPLCTTNTKEGSNICLTRTDRGWYCDNAGSVSFFPQAETCKVQSNRVFCDTMNSRTLPSEVNLCNVDIFNPKYDCKIMTSKTDVSSSVITSLGAIVSCYGKTKCTASNKNRGIIKTFSNGCDYVSNKGVDTVSVGNTLYYVNKQEGQSLYVKGEPIINFYDPLVFPSDEFDASISQVNEKINQSLAFIRKSDELLHNVNAGKSTTNIMITTIIIVIIVILLSLIAVGLLLY
B5: YK-RSV-045 (protein)
chain: QNITEEFYQSTCSAVSKGYLGALRTGWYTSVITIELSNIKENKCNGTDAKVKLIKQELDKYKNAVTDLQLLMQSCPATGSGSAIASGVAVSKVLHLEGEVNKIKSALLSTNKAVVSLSNGVSVLTFKVLDLKNYIDKQLLPILNKQSCSIPNIETVIEFQQKNNRLLEITREFSVNAGVTTPVSTYMLTNSELLSLINDMPITNDQKKLMSNNVQIVRQQSYSIMSIIKEEVLAYCVQLPLYGVIDTPCWKLHTSPLCTTNTKEGSNICLTRTDRGWYCDNAGSVSFFPQAETCKVQSNRVFCDTMNSRTLPSEVNLCNVDIFNPKYDCKIMTSKTDVSSSVITSLGAIVSCYGKTKCTASNKNRGIIKTFSNGCDYVSNKGVDTVSVGNTLYYVNKQEGQSLYVKGEPIINFYDPLVFPSDEFDASISQVNEKINQSLAFIRKSDELLHNVNAGKSTTNIMITTIIIVIIVILLSLIAVGLLLY
B6: YK-RSV-040 (protein)
chain: QNITEEFYQSTCSAVSKGYLGALRTGWYCSVITIELSNIKENKCNGTDAKVKLIKQELDKYKNAVTDLQLLMQSTPATGSGSAIASGVCVSKVLHLEGEVNKIKSALLSTNKAVVSLSNGVSVLTFKVLDLKNYIDKQLLPILNKQSCSIPNIETVIEFQQKNNRLLEITREFSVNAGVTTPVSTYMLTNSELLSLINDMPITNDQKKLMSNNVQIVRQQSYSIMSIIKEEVLAYVVQLPLYGVIDTPCWKLHTSPLCTTNTKEGSNICLTRTDRGWYCDNAGSVSFFPQAETCKVQSNRVFCDTMNSRTLPSEVNLCNVDIFNPKYDCKIMTSKTDVSSSVITSLGAIVSCYGKTKCTASNKNRGIIKTFSNGCDYVSNKGVDTVSVGNTLYYVNKQEGQSLYVKGEPIINFYDPLVFPSDEFDASISQVNEKINQSLAFIRKSDELLHNVNAGKSTTNIMITTIIIVIIVILLSLIAVGLLLY

Legend:
[1] = tested on: RSV pre-F antibody (3C12); format: physicochemical; settings: ELISA binding to 3C12; for Stress resistance parameter, Osmotic pressure (mM) 3000: high osmotic pressure 3000 mM; for Stress resistance parameter, Osmotic pressure (mM) 3000 / Stress resistance parameter, Osmotic pressure (mM) 10: room temperature; for Stress resistance parameter, Osmotic pressure (mM) 3000 / Stress resistance parameter, Osmotic pressure (mM) 10 / Stress resistance parameter, pH 3.5 / Stress resistance parameter, pH 10: 60 min; for Stress resistance parameter, Temperature (° C.) 50: incubation at 50° C. for 60 min; for Stress resistance parameter, Osmotic pressure (mM) 10: low osmotic pressure 10 mM; for Stress resistance parameter, pH 3.5: pH 3.5, room temperature; for Stress resistance parameter, pH 10: pH 10, room temperature; for Stress resistance parameter, Temperature (° C.) 4: storage at 4° C. for one week
Outline: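 RSV F mRNA-vaccine mutants stress-treated: 4° C. for one week, 50° C. for 60 min, low or high osmotic pressure at room temperature for 60 min, acid or base at room temperature for 60 min. Binding to 3C12 (epitope Φ) then measured by ELISA against pre-F trimer standard, HRP anti-human IgG, OD 450/630 nm.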

RSV F antibody (11A9) = test: Binding of epitope II of RSV F antigen mutants by flow cytometry; settings: epitope II, antibody 11A9
Outline: (§1)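 293T cells were transfected with mRNA-LNP (300 ng mRNA) encoding the RSV F mutants and harvested after 16 h. Cells were stained with fluorescent 3C12 (pre-F-specific epitope Φ) or 11A9 (epitope II, pre-F and post-F) for 2 h at 4 °C in the dark, then washed and read by flow cytometry on 1×10^4 cells per measurement.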

[2] = tested on: RSV pre-F antibody (3C12); test: Binding of epitope Φ of RSV F antigen mutants by flow cytometry; settings: for RSV pre-F antibody (3C12) Epitope Φ (%) binding rate: flow cytometry; for Φ/II (%): ratio of epitope Φ (3C12) to epitope II (11A9) binding rate
Outline: as §1

Row | Molecule | Stress resistance parameter, Osmotic pressure (mM) 3000 [1] | Stress resistance parameter, Temperature (° C.) 50 [1] | Stress resistance parameter, Osmotic pressure (mM) 10 [1] | Stress resistance parameter, pH 3.5 [1] | Stress resistance parameter, pH 10 [1] | Stress resistance parameter, Temperature (° C.) 4 [1] | RSV F antibody (11A9) Epitope II (%) binding rate (RSV F antibody (11A9)) [%] | RSV pre-F antibody (3C12) Epitope Φ (%) binding rate [2] [%] | Φ/II (%) [2] [%]
1 | B1 | 0.41 ± 0.02 | 0.63 ± 0.03 | 0.46 ± 0.14 | 0.83 ± 0.04 | 1.03 ± 0.03 | 0.24 ± 0.07 | 89.8 | 84.0 | 93.5
2 | B2 | 0.44 ± 0.00 | 0.60 ± 0.08 | 0.51 ± 0.13 | 0.69 ± 0.14 | 1.00 ± 0.17 | 0.33 ± 0.05 | 87.1 | 76.8 | 88.2
3 | B3 | 0.21 ± 0.06 | 0.39 ± 0.02 | 0.39 ± 0.05 | 0.57 ± 0.03 | 0.82 ± 0.01 | 0.31 ± 0.07 | 87.1 | 79.6 | 91.4
4 | B4 | 0.21 ± 0.03 | 0.50 ± 0.06 | 0.54 ± 0.11 | 0.68 ± 0.10 | 1.24 ± 0.11 | 0.27 ± 0.07 | 86.9 | 79.0 | 90.9
5 | B5 | 0.46 ± 0.05 | 0.41 ± 0.03 | 0.57 ± 0.09 | 0.47 ± 0.09 | 0.97 ± 0.07 | 0.29 ± 0.02 | 86.0 | 78.3 | 91.0
6 | B6 | 0.61 ± 0.09 | 0.91 ± 0.14 | 0.75 ± 0.13 | 0.93 ± 0.09 | 1.00 ± 0.23 | 0.38 ± 0.08 | 92.0 | 84.3 | 91.6
